The results in this text go back to US20190091296.

Data set [1] deals with Q-GLP1-hFc.
The target in data set [2] is Comparator: GLP1 analogue having the amino acid sequence characteristics of LY2189265 fused to hIgG4 Fc domain.
Comparator: GLP1 analogue having the amino acid sequence characteristics of LY2189265 fused to hIgG4 Fc domain, sequence (chain, as listed by the source): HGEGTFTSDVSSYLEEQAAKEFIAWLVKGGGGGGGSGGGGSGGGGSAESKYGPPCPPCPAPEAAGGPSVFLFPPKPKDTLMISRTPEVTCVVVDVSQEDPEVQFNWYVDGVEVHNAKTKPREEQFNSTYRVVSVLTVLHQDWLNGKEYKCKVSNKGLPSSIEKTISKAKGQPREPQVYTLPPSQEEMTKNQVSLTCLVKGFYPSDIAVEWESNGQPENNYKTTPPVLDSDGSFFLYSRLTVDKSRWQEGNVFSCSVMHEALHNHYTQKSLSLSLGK

B1: recombinant human DPP4 (protein)
chain: SRKTYTLTDYLKNTYRLKLYSLRWISDHEYLYKQENNILVFNAEYGNSSVFLENSTFDEFGHSINDYSISPDGQFILLEYNYVKQWRHSYTASYDIYDLNKRQLITEERIPNNTQWVTWSPVGHKLAYVWNNDIYVKIEPNLPSYRITWTGKEDIIYNGITDWVYEEEVFSAYSALWWSPNGTFLAYAQFNDTEVPLIEYSFYSDESLQYPKTVRVPYPKAGAVNPTVKFFVVNTDSLSSVTNATSIQITAPASMLIGDHYLCDVTWATQERISLQWLRRIQNYSVMDICDYDESSGRWNCLVARQHIEMSTTGWVGRFRPSEPHFTLDGNSFYKIISNEEGYRHICYFQIDKKDCTFITKGTWEVIGIEALTSDYLYYISNEYKGMPGGRNLYKIQLSDYTKVTCLSCELNPERCQYYSVSFSKEAKYYQLRCSGPGLPLYTLHSSVNDKGLRVLEDNSALDKMLQNVQMPSKKLDFIILNETKFWYQMILPPHFDKSKKYPLLLDVYAGPCSQKADTVFRLNWATYLASTENIIVASFDGRGSGYQGDKIMHAINRRLGTFEVEDQIEAARQFSKMGFVDNKRIAIWGWSYGGYVTSMVLGSGSGVFKCGIAVAPVSRWEYYDSVYTERYMGLPTPEDNLDHYRNSTVMSRAENFKQVEYLLIHGTADDNVHFQQSAQISKALVDVGVDFQAMWYTDEDHGIASSTAHQHIYTHMSHFIKQCFSLP
In the case of B1, the entries for the “Cleavage % after 4 hours” value in data set [1] and in data set [2] were 0% and 4%, respectively. The “Cleavage % after 72 hours” value was 0% in data set [1] and 41% in data set [2].
